What all share (assay): cell-based or functional assay
Test [1] addresses IRS-1 phosphorylation domain (PTB peptide), 13 amino acid peptide including Y941 of insulin receptor substrate 1.
Test [2] deals with non-phosphorylable Akt kinase motif … (alanine substitution) of sensor AS1A.
Test [3] has as its target Akt kinase motif (AKM) peptide … of sensor AS1T.

Take “SH2 domain of PI3 Kinase (substrate recognition domain) (from UniProt P27986 330-433)”: in test [1], the bioluminescence signal induction, split firefly IRS-1 sensor with (EAAAR)2 linker in CHO-IR cells implanted in nude mice, after insulin (fold induction) was 5 and the bioluminescence signal induction, split firefly IRS-1 sensor with (EAAAR)2 linker in CHO-IR cells implanted in nude mice, no insulin (fold induction) turned out to be 1.3.

“yeast phosphothreonine FHA2 binding domain (from UniProt P22216 601-664)”: in test [2], the complemented FL activity of 293T/AS1A xenografts in nude mice 6 hours after 30 mg/kg perifosine, relative to carrier control treated mice is 20 % decrease and the complemented FL activity of untreated 293T/AS1A cells relative to untreated 293T/AS1T cells came to 10 fold. Besides, in test [3], the FL activity of AS1T in 293T cells treated with PDGF for 30 minutes, relative to carrier control turned out to be 60 % decrease; the complemented FL activity of 293T/AS1T xenografts in nude mice 6 hours after 30 mg/kg perifosine, relative to carrier control treated mice worked out at 60 % increase; the complemented FL activity of AS1T in BT474 cells treated with the PI-3K inhibitor LY294002 for 24 hours, relative to carrier control was found to be 1.3 fold; the maximum induction of complemented FL activity of AS1T in response to LY294002 came to 4 fold.
